Reference: patent publication US20250043302A1, “MUTATED HYDROXYPHENYLPYRUVATE DIOXYGENASE POLYPEPTIDE, AND CODING GENE AND USE THEREOF” (BEIJING DABEINONG BIOTECHNOLOGY CO., LTD., priority 2021, published 2025)

Columns and labels:
[1] = test system: Arabidopsis thaliana T1 plants; assay: Isoxaflutole tolerance of transgenic Arabidopsis thaliana T1 plants (spray, bleached leaf area grade, damage score); format: in vivo; conditions: for Classification and statistics of the grade of pesticide damage Grade 0 / Classification and statistics of the grade of pesticide damage Grade 1 / Classification and statistics of the grade of pesticide damage Grade 2 / Classification and statistics of the grade of pesticide damage Grade 3: number of plants in grade;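 for Scores: Weighted damage index from 0 to 100 where higher means more damage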
How it was run: (§1)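 Damage graded 0–3 from the proportion of bleached leaf area 7 days after spraying. Plants were glufosinate-selected T1 lines, 18 days after sowing, plus vector and wild-type controls. Rates: mesotrione 52.5–420, isoxaflutole 35–280, topramezone 25–200 g ai/ha, with water (0×).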

[2] = test system: Arabidopsis thaliana T1 plants; assay: Mesotrione tolerance of transgenic Arabidopsis thaliana T1 plants (spray, bleached leaf area grade, damage score); format: in vivo; design: Scores: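 damage score 0-100 computed as Σ(N×S)/(T×M)×100 over grades 0-3 with higher meaning more damage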; conditions: for Classification and statistics of the grade of pesticide damage Grade 0 / Classification and statistics of the grade of pesticide damage Grade 1 / Classification and statistics of the grade of pesticide damage Grade 2 / Classification and statistics of the grade of pesticide damage Grade 3: number of plants in grade
How it was run: as §1

Molecule | Resistance evaluation ([1]; isoxaflutole 140 g ai/ha) | Scores ([1]; isoxaflutole 140 g ai/ha) | Classification and statistics of the grade of pesticide damage Grade 0 ([1]; isoxaflutole 140 g ai/ha) | Classification and statistics of the grade of pesticide damage Grade 1 ([1]; isoxaflutole 140 g ai/ha) | Classification and statistics of the grade of pesticide damage Grade 2 ([1]; isoxaflutole 140 g ai/ha) | Classification and statistics of the grade of pesticide damage Grade 3 ([1]; isoxaflutole 140 g ai/ha) | Resistance evaluation ([1]; isoxaflutole 280 g ai/ha) | Scores ([1]; isoxaflutole 280 g ai/ha) | Classification and statistics of the grade of pesticide damage Grade 0 ([1]; isoxaflutole 280 g ai/ha) | Classification and statistics of the grade of pesticide damage Grade 1 ([1]; isoxaflutole 280 g ai/ha) | Classification and statistics of the grade of pesticide damage Grade 2 ([1]; isoxaflutole 280 g ai/ha) | Classification and statistics of the grade of pesticide damage Grade 3 ([1]; isoxaflutole 280 g ai/ha) | Resistance evaluation ([2]; mesotrione 210 g ai/ha) | Scores ([2]; mesotrione 210 g ai/ha) | Classification and statistics of the grade of pesticide damage Grade 0 ([2]; mesotrione 210 g ai/ha) | Classification and statistics of the grade of pesticide damage Grade 1 ([2]; mesotrione 210 g ai/ha) | Classification and statistics of the grade of pesticide damage Grade 2 ([2]; mesotrione 210 g ai/ha) | Classification and statistics of the grade of pesticide damage Grade 3 ([2]; mesotrione 210 g ai/ha) | Resistance evaluation ([2]; mesotrione 420 g ai/ha) | Scores ([2]; mesotrione 420 g ai/ha) | further results
AsHPPDm-F383Y-02: nucleotide sequence encoding Avena sativa HPPD with F383Y; vector DBN11795 (nucleic acid, AsHPPDm-F383Y-02 Nucleotide Sequence, vector DBN11795) DNA: ATGCCACCTACTCCAGCTACAGCTACTGGTGCTGCTGCTGCTGCCGTTACTCCTGAGCACGCTGCCAGGTCATTCCCCAGGGTGGTTCGCGTGAACCCCAGATCTGATAGGTTCCCAGTTCTGAGCTTCCACCATGTTGAGCTGTGGTGCGCTGATGCTGCTTCTGCTGCTGGCAGGTTCTCTTTCGCTCTTGGTGCTCCACTCGCTGCTAGATCTGATCTGTCTACAGGAAATAGCGCTCATGCCTCACTCCTGCTTCGCTCAGGTGCTTTGGCCTTCCTCTTCACCGCTCCATATGCTCCCCCACCTCAGGAGGCTGCTACTGCTGCTGCTACAGCCTCCATTCCAAGCTTCTCAGCTGATGCCGCTAGAACCTTCGCTGCTGCTCATGGACTTGCCGTGAGGTCTGTTGGTGTTCGCGTGGCTGATGCTGCTGAGGCTTTCAGAGTTTCCGTTGCCGGCGGAGCTAGGCCAGCTTTCGCTCCTGCTGATTTGGGACATGGTTTCGGCCTGGCTGAGGTTGAGCTTTACGGTGACGTGGTTCTCCGCTTCGTGTCTTACCCAGATGAGACTGACCTGCCTTTCCTTCCCGGCTTCGAGAGAGTTTCCTCTCCTGGTGCCGTGGATTACGGCCTGACAAGGTTCGACCACGTGGTTGGAAACGTTCCCGAGATGGCTCCAGTGATCGATTACATGAAGGGCTTCCTTGGATTCCATGAGTTCGCCGAGTTCACTGCTGAGGACGTGGGAACCACTGAGTCCGGTTTGAACTCTGTGGTTCTCGCCAACAATTCTGAGGCTGTTTTGCTCCCTCTGAATGAGCCTGTGCATGGAACCAAGAGGAGAAGCCAGATTCAAACTTACCTGGAGTACCACGGTGGCCCTGGAGTTCAGCATATCGCCCTTGCTTCTAATGATGTGTTGCGCACACTCAGAGAGATGCGCGCCAGAACCCCCATGGGAGGTTTCGAGTTCATGGCCCCACCACAGGCTAAGTACTACGAGGGCGTTAGAAGGATTGCTGGAGACGTGTTGAGCGAGGAGCAGATCAAGGAGTGCCAAGAGCTGGGTGTTCTTGTGGATAGGGATGACCAGGGCGTTCTGCTTCAAATTTTCACTAAGCCAGTGGGCGACCGCCCTACATTCTATCTTGAGATGATTCAAAGAATCGGCTGCATGGAGAAGGATGAGGTTGGACAGGAGTACCAAAAGGGCGGATGCGGTGGCTTCGGAAAGGGTAACTTCAGCGAGTTGTTCAAGTCAATCGAGGACTACGAGAAGAGCCTCGAGGTGAAGCAGTCAGTGGTTGCCCAAAAGTCCTGA | Non-resistant | 100 | 0 | 0 | 0 | 16 | Non-resistant | 100 | 0 | 0 | 0 | 16 | Non-resistant | 100 | 0 | 0 | 0 | 16 | Non-resistant | 100 | Classification and statistics of the grade of pesticide damage Grade 0 ([2]; mesotrione 420 g ai/ha): 0; Classification and statistics of the grade of pesticide damage Grade 1 ([2]; mesotrione 420 g ai/ha): 0; Classification and statistics of the grade of pesticide damage Grade 2 ([2]; mesotrione 420 g ai/ha): 0; Classification and statistics of the grade of pesticide damage Grade 3 ([2]; mesotrione 420 g ai/ha): 16
AsHPPDm-F372A-F383Y-02: nucleotide sequence encoding Avena sativa HPPD with F372A+F383Y; vector DBN11796 (nucleic acid, AsHPPDm-F372A-F383Y-02 Nucleotide Sequence, vector DBN11796) DNA: ATGCCACCTACTCCAGCTACAGCTACTGGTGCTGCTGCTGCTGCCGTTACTCCTGAGCACGCTGCCAGGTCATTCCCCAGGGTGGTTCGCGTGAACCCCAGATCTGATAGGTTCCCAGTTCTGAGCTTCCACCATGTTGAGCTGTGGTGCGCTGATGCTGCTTCTGCTGCTGGCAGGTTCTCTTTCGCTCTTGGTGCTCCACTCGCTGCTAGATCTGATCTGTCTACAGGAAATAGCGCTCATGCCTCACTCCTGCTTCGCTCAGGTGCTTTGGCCTTCCTCTTCACCGCTCCATATGCTCCCCCACCTCAGGAGGCTGCTACTGCTGCTGCTACAGCCTCCATTCCAAGCTTCTCAGCTGATGCCGCTAGAACCTTCGCTGCTGCTCATGGACTTGCCGTGAGGTCTGTTGGTGTTCGCGTGGCTGATGCTGCTGAGGCTTTCAGAGTTTCCGTTGCCGGCGGAGCTAGGCCAGCTTTCGCTCCTGCTGATTTGGGACATGGTTTCGGCCTGGCTGAGGTTGAGCTTTACGGTGACGTGGTTCTCCGCTTCGTGTCTTACCCAGATGAGACTGACCTGCCTTTCCTTCCCGGCTTCGAGAGAGTTTCCTCTCCTGGTGCCGTGGATTACGGCCTGACAAGGTTCGACCACGTGGTTGGAAACGTTCCCGAGATGGCTCCAGTGATCGATTACATGAAGGGCTTCCTTGGATTCCATGAGTTCGCCGAGTTCACTGCTGAGGACGTGGGAACCACTGAGTCCGGTTTGAACTCTGTGGTTCTCGCCAACAATTCTGAGGCTGTTTTGCTCCCTCTGAATGAGCCTGTGCATGGAACCAAGAGGAGAAGCCAGATTCAAACTTACCTGGAGTACCACGGTGGCCCTGGAGTTCAGCATATCGCCCTTGCTTCTAATGATGTGTTGCGCACACTCAGAGAGATGCGCGCCAGAACCCCCATGGGAGGTTTCGAGTTCATGGCCCCACCACAGGCTAAGTACTACGAGGGCGTTAGAAGGATTGCTGGAGACGTGTTGAGCGAGGAGCAGATCAAGGAGTGCCAAGAGCTGGGTGTTCTTGTGGATAGGGATGACCAGGGCGTTCTGCTTCAAATTGCCACTAAGCCAGTGGGCGACCGCCCTACATTCTATCTTGAGATGATTCAAAGAATCGGCTGCATGGAGAAGGATGAGGTTGGACAGGAGTACCAAAAGGGCGGATGCGGTGGCTTCGGAAAGGGTAACTTCAGCGAGTTGTTCAAGTCAATCGAGGACTACGAGAAGAGCCTCGAGGTGAAGCAGTCAGTGGTTGCCCAAAAGTCCTGA | Moderately | 33 | 5 | 6 | 5 | 0 | Poorly | 67 | 0 | 0 | 16 | 0 | Moderately | 33 | 5 | 6 | 5 | 0 | Poorly resistant | 52 | Classification and statistics of the grade of pesticide damage Grade 0 ([2]; mesotrione 420 g ai/ha): 0; Classification and statistics of the grade of pesticide damage Grade 1 ([2]; mesotrione 420 g ai/ha): 8; Classification and statistics of the grade of pesticide damage Grade 2 ([2]; mesotrione 420 g ai/ha): 7; Classification and statistics of the grade of pesticide damage Grade 3 ([2]; mesotrione 420 g ai/ha): 1
